Results reported in patent US20250027068.
Positions count from the first letter of the chain named.

B1: PRT-113 (protein)
chain: MRNATEAYAKEVPHTITSVWTKGVTPPTPEQFTYYNEDVFHAPYLAHQGWYDITKTFNGKDNLLCGAATAGNMLHWWFDQNKTEIEAYLSKHPEKQKIIFNNQELFDLKAAIDTKDSQTNSQLFNYFKDKAFPNLSARQLGVMPDLVLDMFINGYYLNVFKTQSTDVNRPYQDKDKRGGIFDAVFTRGDQTKLLTARHDLKNKGLNDISDLIKQELTEGKALALSHTYANVSINHVINLWGADFNAEGNLEAIYVTDSDANASIGMKKYFVGINASGKVAISAKKIEGENIGAQVLGLFTLSSGKDIWQKLS
B2: PRT-114 (protein)
chain: MRNATEAYNEETPHQITSVWTKGVTPPTPEQFRYNNEDVIHAPYLANQGWYDITKTFNGKDNLLCGAATAGNMLHWWFDQNKTEIEAYLSKHPEKQKIIFNNQELFDLKAAIDTKDSQTNSQLFNYFREKAFPNLSARQLGVMPDLVLDMFINGYYLNVTKTQSTDVNRPYQDKDKRGGIFDAVFTRGDQTKLLTARHDLKNKTLNEISTLIKQELTEGRALALSHTYANVSISHVINLWGADFNAEGNLEAIYVTDSDANASIGMKKYFVGVNAAGHVAISAKKIEGENIGAQVLGLFTLSSGKDIWQKLS
B3: PRT-115 (protein)
chain: MRNATEAYAKETPKTITSVWTKGVTPPTPEQFRYNGEDVIHAPYLAHQGWYDITKTFDGKDNLLCGAATAGNMLHWWFDQNKTEIERYLKKHPEKQKIIFNNQELFDLKAAIDTKDSQTNSALFNYFRDKAFPNLSARQLGVMPDLVLDMFINGYYLNVTKTQSTDVNRPYQTKDKRGGIFDAVFTRGDQTKLLTARHDLKNKTLNDISTLIKQELTEGKALALSHTYANVSISHVINLWGADFNAEGNLEAIYVTDSDSNASIGMKKYFVGVNAAGKVAISAKKIKGENIGAQVLGLFTLSSGKDIWQKLS
B4: PRT-116 (protein)
chain: MRNATEAYNKATPTTITSVWTKGVTPPTPEQFRYNNEDVFHAPYKAHQGWYDITKTFNGKDNLLCGAATAGNMLHWWFDQNKTEIEAYLSKHPEKQKIIFNNQELFDLKAAIDTKDSQTNSQLFNYFRDKAFPNLSARQLGVMPDLVLDMFINGYYLNVFKTQSTDVNRPYQDKDKRGGIFDAVFTRGDQTKLLTARHDLKDKGLNEISDLIKQELTEGKALALSHTYANVRISHVINLWGADFNAEGNLEAIYVTDSDANASIGMKKYFVGVNSSGHVAISAKKIEGENIGAQVLGLFTLSSGKDIWQKLS
B5: PRT-117 (protein)
chain: MRNATEAYAKEVPHTITSVWTKGVTPPTPEQFTYQNEDVFHAPYLANQGWYDITKTFNGKDNLLCGAATAGNMLHWWFDQNKEEIERYLSKHPEKQKIIFNNQELFDLKAAIDTKDSQTNSALFNYFRDKAFPNLSARQLGVMPDLVLDMFINGYYLNVFKTQSTDVNRPYQDKDKRGGIFDAVFTRGDQTTLLTARHDLKNKGLNDISDLIKQELTEGKALALSHTYANVSISHVINLWGADFNAEGNLEAIYVTDSDANASIGMKKYFVGVNTAGKVAISAKKIEGENIGAQVLGLFTLSSGKDIWEQLS
B6: PRT-118 (protein)
chain: MRNATEAYNKETPKTITSVWTKGVTPPTPEQFTKQNEDVFHAPYVANQGWYDITKTFNGKDNLLCGAATAGNMLHWWFDQNKTEIENYLKKHPEKQKIIFNNQELFDLKAAIDTKDSQTNSALFNYFRDKAFPNLSARQLGVMPDHVLDMFINGYYLNVNKTQSTDVNRPYDDKDKRGGIFDAVFTRGDQTTLLTARHDLKNKGLNEISTLIKQELTEGRALALSHTYANVSISHVINLWGADFNAEGNLEAIYVTDSDANASIGMKKYFVGKNASGKVAISAKKIEGDNIGAQVLGLFTLSSGKDIWQKLS
B7: PRT-119 (protein)
chain: MRNATEAYAKETPKQITSVWTKGVTPPTPEQFRYNNEDVFHAPYVANQGWYDITKTFDGKDNLLCGAATAGNMLHWWFDQNKTEIEKYLSKHPEKQKIIFNNQELFDLKAAIDTKDSQTNSQLFNYFRDKAFPNLSARQLGVMPDLVLDMFINGYYLNVTKTQSTDVNRPYQDKDKRGGIFDAVFTRGDQTKLLTARHDLGNKSLNEISQLIKQELQEGKALALSHTYANVRISHVINLWGADFDAEGNLEAIYVTDSDSNASIGMKKYYVGVNSAGKVAISAKKIEGENIGAQVLGLFTLSSGKDIWQKLS
B8: PRT-10 (protein)
chain: MANQEIRYSEVTPYTVTSVWTKGVTPPANFTQGEDVFHAPYVANQGWYDITKTFNGKDDLLCGAATAGNMLHWWFDQNKEQIERYLKEHPEKQKINFNGEQMFDVKEAIDTKDSQLDSELFEYFKEKAFPYLSTKHLGVFPDHVIDMFINGYRLSLTNHGPTPVKEGSKDPRGGIFDAVFTRGDQSKLLTSRHDFKEKTLKEISDLIKKELTEGKALALSHTYANVRINHVINLWGADFDSEGNLEAIYVTDSDSNASIGMKKYFVGVNSAGKVAISAKEIEDDNIGAQVLGLFTLSTGQDIWNQTN
B9: PRT-120 (protein)
chain: MRNATEAYNEETPKQITSVWTKGVTPLTPEDFRYNNEDVFHAPYLANQGWYDITKTFNGKDNLLCGAATAGNMLHWWFDQNKEEIEAYLKKHPEKQKIIFNNQELFDLKAAIDTKDSQTNSQLFNYFKDKAFPNLSARQLGVMPDLVLDMFINGYYLNVNKTQSTDVNRPYQDKDKRGGIFDAVFTRGDQTKLLTERHDLKNKGLNDISTLIKQELTEGKALALSHTYANVSINHVINLWGADFDAEGNLEAIYVTDSDSNESIGMKKYFVGINAAGKVAISAKKIEDENIGAQVLGLFTLSSGKDIWQQLS
B10: PRT-121 (protein)
chain: MRNATEAYNEDTPKQITSVWTKGVTPPTPEQFRKYNEDVLHAPYIANQGWYDITKTFNGKDDLLCGAATAGNMLHWWFDQNKTEIEAYLSKYPEKQKIIFNNQELFDLRAAIDTKDSQTNSALFNYFRDKAFPNLSARQLGVMPDLVLDMFINGYYLNVTKTQSTDVNRPYQTKDKRGGIFDAVFTRGDQTTLLTSRHDLKNKTLNEISDLIKQELTEGKALALSHTYANVSISHVINLWGADFNAEGNLEAIYVTDSDANASIGMKKYFVGVNAAGKVAISAKKIEGENIGAQVLGLFTLSTGKDIWEKLS
B11: PRT-122 (protein)
chain: MRNATEAYAKEVPKKITSVWTKGVTPLTPEQFIYQNEDVFHAPYLAHQGWYDITKTFNGKDNLLCGAATAGNMLHWWFDQNKEEIERYLSKHPEKQKIIFNNQELFDLKAAIDTKDSQTNSALFNYFRDKAFPNLSARQLGVMPDLVLDMFINGYYLNVTKTQSTDVNRPYQTKDKRGGIFDAVFTRGDQTKLLTERHDLKNKTLEEISQLIKQELTEGKALGLSHTYANVRISHVINLWGADFDAEGNLEAIYVTDSDSNASIGMKKYFVGVNASGKVAISAKKIEDDNIGAQVLGLFTLSSGKDIWEKLS
B12: PRT-123 (protein)
chain: MRNATEAYNKESPHTITSVWTKGVTPPTPEDFRYNNEDVLHAPYVANQGWYDITKTFDGKDNLLCGAATAGNMLHWWFDQNKEEIERYLKKHPEKQKIIFNNQELFDVKAAIDTKDSQTNSKLFNYFRDKAFPNLSARQLGVMPDLVLDMFINGYYLNLGKTQSTDVNRPYQDKDKRGGIFDAVFTRGDQTTLLTARHDLKNKGLNEISDLIKQELTEGKALALSHTYANVRINHVINLWGADFDAEGNLIAIYVTDSDANASIGMKKYFVGVNANGKVAISAKKIEGDNIGAQVLGLFTLSTGQDIWQKLS
B13: PRT-124 (protein)
chain: MRNATEAYAKEVPHQITSVWTKGVTPLTPEQFRYNNEDVIHAPYLAHQGWYDITKTFDGKDNLLCGAATAGNMLHWWFDQNKTEIEAYLSKHPEKQKIIFNNQELFDLKAAIDTKDSQTNSQLFNYFRDKAFPNLSARQLGVMPDLVLDMFINGYYLNVFKTQSTDVNRPYQDKDKRGGIFDAVFTRGDQTTLLTARHDLKNKGLNDISTIIKQELTEGKALALSHTYANVSISHVINLWGADFNAEGNLEAIYVTDSDANASIGMKKYFVGVNAHGKVAISAKKIEGENIGAQVLGLFTLSSGKDIWQKLS
B14: PRT-125 (protein)
chain: B13 chain with I40F, H47N, T192K, I211L, K278H
B15: PRT-126 (protein)
chain: B13 chain with H47N, T210D, I211L, A260S, H276A, K278H
B16: PRT-127 (protein)
chain: B13 chain with H47N, D58N, S90K, D207E, I211L, A260S

Target: pooled human IgG

Protein	Enzyme Activity Endpoint Assay (purified): Fab'2	Enzyme Activity Endpoint Assay (purified): Fc	Enzyme Activity Endpoint Assay (purified): IgG	Enzyme Activity Endpoint Assay (purified): scIgG	Enzyme Activity Endpoint Assay: Fab′2	Enzyme Activity Endpoint Assay: Fc	Enzyme Activity Endpoint Assay: IgG	Enzyme Activity Endpoint Assay: scIgG
B1	656 ng/µL	189 ng/µL	0 ng/µL	0 ng/µL				
B2	361 ng/µL	162 ng/µL	129 ng/µL	111 ng/µL				
B3	124 ng/µL	128 ng/µL	24 ng/µL	105 ng/µL				
B4	510 ng/µL	188 ng/µL	0 ng/µL	0 ng/µL				
B5	663 ng/µL	207 ng/µL	0 ng/µL	0 ng/µL				
B6	23 ng/µL	85 ng/µL	0 ng/µL	153 ng/µL				
B7	15 ng/µL	96 ng/µL	0 ng/µL	133 ng/µL				
B8					2 ng/µL	56 ng/µL	32 ng/µL	58 ng/µL
B9	92 ng/µL	113 ng/µL	28 ng/µL	153 ng/µL				
B10	447 ng/µL	174 ng/µL	0 ng/µL	0 ng/µL				
B11	565 ng/µL	194 ng/µL	138 ng/µL	0 ng/µL				
B12	468 ng/µL	187 ng/µL	0 ng/µL	0 ng/µL				
B13	676 ng/µL	202 ng/µL	0 ng/µL	0 ng/µL				
B14	609 ng/µL	197 ng/µL	0 ng/µL	0 ng/µL				
B15	472 ng/µL	160 ng/µL	0 ng/µL	0 ng/µL				
B16	523 ng/µL	140 ng/µL	0 ng/µL	0 ng/µL				
